The results in this text go back to the nanobody polyreactivity screen of Harvey et al. (2022).

A short description of this data set: yeast display, Sf9 membrane polyspecificity reagent, FACS + sequencing; frameworks hold sequencing errors. In a few lines:
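Nanobodies from a synthetic yeast display library (Saccharomyces cerevisiae BJ5465), induced 36–48 hours with galactose, were stained 1 hour at 4 °C with 10% biotinylated, detergent-solubilized Sf9 membrane reagent, enriched on streptavidin microbeads, then FACS-sorted. Anti-HA (expression) and streptavidin (reagent binding) fluorescence set low and high (top ~1%) gates. Polyreactivity labels come from the gate of origin. Genes were colony-PCR amplified, MiSeq 2 × 250 sequenced and filtered by CDR length.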
For the sequence “QVQLVESGGGLVQAGGSLRLSCAASGIFDYYVMGWYRQAPGKERELVAAISKSDGSTYYADSVKGRFTISRDNAKNTVYLQMNSLKQEDTAVYYCNAKLYYNRMDYWGQGTQVTVSS”, the “polyreactivity (PSR sort gate)” value is listed as “low polyreactivity”.
The result for “QVQLVESGGGLVQAGGSLRLSCAASGIFFHYAMGWYKQAPGKERELVAAISYSGGRTYYADSVKGRFTISRDNAKNTVYLQMNSLKPEDTAVYYCAARYYIGYGHRTYGYDYWGQGTQVTVSS” reads “high polyreactivity”.
The result for “QVQLVESGGGLVQAGGSLRLSCAASGIFRKYAMGWYRQAPGTERELVAAITWGGGRTYYADSVKGRFTISRDNAKNTVYLQMNSLKPEDTAVYYCAAEYSLVPSYKVYYWGQGTQVTVSS” reads “high polyreactivity”; that for “QVQLVESGGGLVQAGGSLRLSCAASGIFSNYAMGWYRQAPGKERELVAAIRSRSGTTYYADSVKGRFTISRDNAKNTVYLQLNSLKPEDTAVYYCDAGGKSRSYYWGQGTQVTVSS”, “high polyreactivity”; that for “QVQLVESGGGLVQAGGSLRLSCAASGIFSRYAMGWYRQAPGKERELVAAISSGDSTNYADSVKGRFTISRDNAKNTVYLQMNSLKPEDTAVYYCATERSHLATGQGYYYVQTFYYWGQGTQVTVSS”, “low polyreactivity”.
The same measure for “QVQLVESGGGLVQAGGSLRLSCAASGIFVVYAMGWYRQAPGKERELVAAISSGVSTTYADSVKGRFTISRDNAKNTVYLQMNSLKPEDTAVYYCNTLWGHQYIVPYRTREFYYWGQGTQVTVSS”: “low polyreactivity”.
Turning to “QVQLVESGGGLVQAGGSLRLSCAASGIFWANGMGWYRQAPGKEREWVAAITSGGSTNYADSVKGRFTISRDNAKNTVYLQMNSLKPEDTAVYYCNKPWYSYRYGGVGYGYWGQGTQVTVSS”, the “polyreactivity (PSR sort gate)” value is recorded as “low polyreactivity”.
As for “QVQLVESGGGLVQAGGSLRLSCAASGIFYRYAMGWYRQAPGKEREFVAAISSTGGSTYYADSVKGRFTISRDNAKNSVYLQMNSLKPEDTAVYYCAKRGSRSGRSDYWGQGTQVTVSS”, the “polyreactivity (PSR sort gate)” value was “low polyreactivity”.
The same measure for “QVQLVESGGGLVQAGGSLRLSCAASGIGCYRQAPGKERELVAAINWSGGNTYYADSVKGRFTISRDNAKNTVYLQMNSLKPEDTAVYYCNAVVWVEVPGDYWGQGTQVTVSS”: “low polyreactivity”.
As to “QVQLVESGGGLVQAGGSLRLSCAASGIICGDNALGLYRQAPGKEWELVAAISSSGTSTNYADSVKGRFTISRDNAKNTVYLQMNSLKPEETAVYYCAKDVLPPYPQSRSGGDYWGQGTQVTVSS”, the “polyreactivity (PSR sort gate)” value is “low polyreactivity”.
The result for “QVQLVESGGGLVQAGGSLRLSCAASGIIFAANAMGWYRQAPGKERELVAAISKNGGITYYADSVKGRFTISRDTAKNTVYLQMNSLKPEDTAVYYCAARWRQTRRYYYWGQGTQVTVSS” reads “high polyreactivity”; that for “QVQLVESGGGLVQAGGSLRLSCAASGIIFAAYVMGWYRQAPGKERELVAAISKSGGRTYYADSVKGRFTISRDNAKNTVYLQMNSLKPEDTAVYYCATDVRVGHIRDYDYWGQGTQVTVSS”, “high polyreactivity”; that for “QVQLVESGGGLVQAGGSLRLSCAASGIIFAFYAMGWYRQAPGKERELVAAISIDGSTYYADSVKGRFTISRDNAKNTVYLQMNSLKPEDTAVYYCAAEGNGYLVSTWWVRYEYWGQGTQVTVSS”, “low polyreactivity”.
The same measure for “QVQLVESGGGLVQAGGSLRLSCAASGIIFAHNAMGWYRQAPGKERELVAAISKRGGSTYYADSVKGRFTISRDNAKNTVYLQMNSLKPEDTAVYYCNKYSSYSFTYDSWGQGTQVTVSS”: “high polyreactivity”; for “QVQLVESGGGLVQAGGSLRLSCAASGIIFAKYAMGWYRQAPGKERELVAAISRSGGSTYYADSVKGRFTISRDNAKNTVYLQMNSLKPEDTAVYYCAAAYYRDGGDFDYWGQGTQVTVSS”: “high polyreactivity”; for “QVQLVESGGGLVQAGGSLRLSCAASGIIFAQYAMGWYRQAPGKERELVAAISWSGGSTYYADSVKGRFTISRDNAKNTVYLQMNSLKPEDTAVYYCAADGYYGYYSQYEYLYYYWGQGTQVTVSS”: “high polyreactivity”.
With “QVQLVESGGGLVQAGGSLRLSCAASGIIFARNTMGWYRQAPGKERELVAAITSSGGNTYYADSVKGRFTISRDNAKNTVYLQKNSLKPEDTAVYYCAAYSRTLYPDRYYWGQGTQVTVSS”, the “polyreactivity (PSR sort gate)” value is on record as “high polyreactivity”.
The same measure for “QVQLVESGGGLVQAGGSLRLSCAASGIIFARYAMGWYRQAPGKERELVAAITSGGGTSYADSVKGRFTISRDNAKNTVYLQMNSLKPEDTAVYYCNADGYLAERFVIRLDEYRDYDYWGQGTQVTVSS”: “low polyreactivity”.
The result for “QVQLVESGGGLVQAGGSLRLSCAASGIIFARYAMGWYRQAPGKERELVASINWTGGNTYADSVKGRFTISRDNAKNTVYLQMNSLKPEDTAVYYCARDFCPGSSDPKASISFDHWGQGTQVTVSS” reads “low polyreactivity”; that for “QVQLVESGGGLVQAGGSLRLSCAASGIIFAWNTMGWSRHPPGKERELVAAISSSGGSTYYADSVKGRFTISRDNAKNTVYLQMNSLKPEDTAVYYCAADGYHWIHEYDYWGQGTQVTVSS”, “low polyreactivity”.
The same measure for “QVQLVESGGGLVQAGGSLRLSCAASGIIFAWYAMGWYRQAPGKERELVAAINWSGGSTYYADSVKGRFTISRDYAKNTVYLQMNSLKPEDTAVYYCARSSRGKLDYWGQGTQVTVSS”: “low polyreactivity”.
With “QVQLVESGGGLVQAGGSLRLSCAASGIIFAWYAMGWYRQAPGKERELVAGISQSGGRTYYADSVKGRFTISRDNAKNSVYLQMNSLKPEDTAVYYCAAQWYYSPYVSGDYWGQGTQVTVSS”, the “polyreactivity (PSR sort gate)” value was “high polyreactivity”.
The same measure for “QVQLVESGGGLVQAGGSLRLSCAASGIIFAYAMGWYRQAPAKEREMVAAISGRDGSTYYADSVKGRFTISRDNAKNTVYLQMNSLKPDDTAVYYCAKRFSDLPVEMDYWGQGTQVTVSS”: “low polyreactivity”; for “QVQLVESGGGLVQAGGSLRLSCAASGIIFDDYAMGWYRQAPGKERELVAAISVSGGSTYYADSVKGRFTISRDNAKNTVYLQMNSLKPEDTAVYYCAARLRQPYTRGNYWGQGTQVTVSS”: “high polyreactivity”.
The same measure for “QVQLVESGGGLVQAGGSLRLSCAASGIIFDEYAMGWYRQAPGKERELVAVIDWSGGSTYYADSVKGRFTISRDNAKNTFFLQMNSLKPEDTAVYYCAAEDDSTTPEFDYWGQGTQVTVSS”: “low polyreactivity”; for “QVQLVESGGGLVQAGGSLRLSCAASGIIFDHNAMGWYRQAPGKERELVAAISTGGGNTYYADSVKGRFTISRDNAKNTVYLQMNSLKPEDTAVYYCATEPGYSYLTSYKYVYWGQGTQVTVSS”: “low polyreactivity”.
The result for “QVQLVESGGGLVQAGGSLRLSCAASGIIFDRYAMGWYRQAPGKEREFVAAISRRGGSTYYADSVKGRFTISRDNAKNTVYLQMNSLKPEDTAVYYCAKEIRYSSSVSESDYWGQGTQVTVSS” reads “high polyreactivity”; that for “QVQLVESGGGLVQAGGSLRLSCAASGIIFDRYAMGWYRQAPGKERELVAAITYGGGSTYYADSVKGRFTISRDNAKNTVYLQMNSLKPEDTAVYYCAAVPRSGMYYWGQGTQVTVSS”, “high polyreactivity”; that for “QVQLVESGGGLVQAGGSLRLSCAASGIIFDSNAMGWYRQAPGKERELVAAITRTATRTYYADSVKGRFTISRDQAQNTVYLQMNSLKPEDTAFYYCADRGSTPQPGVGYWGQGTQVTVSS”, “high polyreactivity”.
As for “QVQLVESGGGLVQAGGSLRLSCAASGIIFDSYAMGLYRQAPGKERELVAAITSRGGRTYYADSVKRRFTISRENAKNTVYLQMNSLKPEDTAVYYCAARAIYDRRTEGTSGYDYWGPGTQVTVSS”, the “polyreactivity (PSR sort gate)” value is “low polyreactivity”.
